The values that follow come from publication PMC8440562, “MAD2L2 dimerization and TRIP13 control shieldin activity in DNA repair” (Nature Communications, 2021).

Series [1] deals with the molecule itself. Nature of the series: SEC; Superdex-200 in buffer C (25 mM Tris pH 8, 0.3 M NaCl, 10% glycerol, 0.5 mM TCEP, 10 mM MgCl2) + 0.1 mM ATP; proteins incubated 2 h on ice with 2 mM ATP before the run; equimolar in Fig. 3f.
The next series deals with T1, MAD2L2^WT (E. coli) (human, UniProt Q9UI95 1-211).
T1 construct: MAD2L2 (REV7), human; source: E. coli Rosetta, purified (metal chelating column, PreScission cleavage, SEC); not shown: GST/hexahistidine-MBP fusion-tag, N-terminal, cleaved
In words: pull-down; 0.25 uM MBP-SHLD3^28-83 pre-adsorbed on amylose beads, eightfold molar excess of MAD2L2 variant, time course at 4 C in buffer B (10 mM HEPES pH 7.5, 0.15 M NaCl, 5% glycerol, 0.5 mM TCEP); Coomassie SDS-PAGE. Particulars: both partners purified.

A further series has as its target T2, MAD2L2^1xMut (E. coli) (human, UniProt Q9UI95 1-211, R124A).
T2 construct: MAD2L2 (REV7), human, with R124A; also called MAD2L2^R124A; source: E. coli Rosetta, purified (metal chelating column, PreScission cleavage, SEC); not shown: GST/hexahistidine-MBP fusion-tag, N-terminal, cleaved
The description is as above. The following applies: both partners purified.

The next series deals with T3, MAD2L2^3xMut (E. coli) (human, UniProt Q9UI95 1-211, K44A | R124A | A135D).
T3 construct: MAD2L2 (REV7), human, with K44A, R124A and A135D; also called MAD2L2^K44A/R124A/A135D; source: E. coli Rosetta, purified (metal chelating column, PreScission cleavage, SEC); not shown: GST/hexahistidine-MBP fusion-tag, N-terminal, cleaved
The description is as above. Particulars: both partners purified.

T3 sequence (Q9UI95 whole entry K44A/R124A/A135D, the tested form may be a part): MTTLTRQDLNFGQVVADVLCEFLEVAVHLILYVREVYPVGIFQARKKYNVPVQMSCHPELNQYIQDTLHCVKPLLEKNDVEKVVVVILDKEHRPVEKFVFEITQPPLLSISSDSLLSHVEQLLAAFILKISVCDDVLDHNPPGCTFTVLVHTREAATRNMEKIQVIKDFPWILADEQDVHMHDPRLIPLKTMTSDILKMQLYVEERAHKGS
T2 sequence (Q9UI95 whole entry R124A, the tested form may be a part): as the sequence (Q9UI95 whole entry K44A/R124A/A135D, the tested form may be a part) above, with A44K, D135A counted along it
T1 sequence (Q9UI95 whole entry, the tested form may be a part): as the sequence (Q9UI95 whole entry K44A/R124A/A135D, the tested form may be a part) above, with A44K, A124R, D135A counted along it

B1: His6-EGFP-TRIP13^E253Q (enzyme, human, UniProt Q15645 1-432, looked up)
chain: MDEAVGDLKQALPCVAESPTVHVEVHQRGSSTAKKEDINLSVRKLLNRHNIVFGDYTWTEFDEPFLTRNVQSVSIIDTELKVKDSQPIDLSACTVALHIFQLNEDGPSSENLEEETENIIAANHWVLPAAEFHGLWDSLVYDVEVKSHLLDYVMTTLLFSDKNVNSNLITWNRVVLLHGPPGTGKTSLCKALAQKLTIRLSSRYRYGQLIEINSHSLFSKWFSESGKLVTKMFQKIQDLIDDKDALVFVLIDQVESLTAARNACRAGTEPSDAIRVVNAVLTQIDQIKRHSNVVILTTSNITEKIDVAFVDRADIKQYIGPPSAAAIFKIYLSCLEELMKCQIIYPRQQLLTLRELEMIGFIENNVSKLSLLLNDISRKSEGLSGRVLRKLPFLAHALYVQAPTVTIEGFLQALSLAVDKQFEERKKLAAYI
notes: TRIP13, human, with E253Q; printed mass of GFP-TRIP13 75.5 kDa; source: insect cells (Hi5, baculovirus, biGBac), purified
The term stoichiometry N denotes a count of units in the complex or per binding partner. On to B1, for which the “stoichiometry N” value in series [1] is 6.

B2: TRIP13^E253Q (48.5 kDa form, Fig. 3f) (enzyme, human, UniProt Q15645 1-432, looked up)
chain: MDEAVGDLKQALPCVAESPTVHVEVHQRGSSTAKKEDINLSVRKLLNRHNIVFGDYTWTEFDEPFLTRNVQSVSIIDTELKVKDSQPIDLSACTVALHIFQLNEDGPSSENLEEETENIIAANHWVLPAAEFHGLWDSLVYDVEVKSHLLDYVMTTLLFSDKNVNSNLITWNRVVLLHGPPGTGKTSLCKALAQKLTIRLSSRYRYGQLIEINSHSLFSKWFSESGKLVTKMFQKIQDLIDDKDALVFVLIDQVESLTAARNACRAGTEPSDAIRVVNAVLTQIDQIKRHSNVVILTTSNITEKIDVAFVDRADIKQYIGPPSAAAIFKIYLSCLEELMKCQIIYPRQQLLTLRELEMIGFIENNVSKLSLLLNDISRKSEGLSGRVLRKLPFLAHALYVQAPTVTIEGFLQALSLAVDKQFEERKKLAAYI
notes: TRIP13, human, with E253Q; printed mass 48.5 kDa (291 kDa for hexamer); The printed mass fits TRIP13 without the EGFP fusion; source: insect cells (Hi5, baculovirus, biGBac), purified
For B2, the “stoichiometry N” value in series [1] came out at 6.

B3: MBP-SHLD3^28-83 (domain or fragment, human, UniProt Q6ZNX1 28-83, looked up)
chain: QDFPTRPLSRFIPWFPYDGSKLPLRPKRSPPVISEEAAEDVKQYLTISEHDAKSHS
notes: SHLD3, human, residues 28-83; contains only the second RBM; also called SHLD3^28-83 peptide; SHLD3-fragment; source: E. coli Rosetta, purified (metal chelating column, SEC); not shown: hexahistidine-MBP, N-terminal, kept
On to B3, for which the binding result in the series with MAD2L2^WT (E. coli), with MAD2L2^1xMut (E. coli) and with MAD2L2^3xMut (E. coli) was “binds” each time.
